Test [1] deals with T1, human CD3 on CD3+ Jurkat cells (human, UniProt P07766 23-207).
T1 construct: whole, on cells; Native CD3 complex on cells; the other CD3 chains are not specified for this assay; also called Human CD3+ Jurkat
Briefly: flow cytometry, 100 nM IgG on CD3+ Jurkat cells, pH 7.4. The method, then: (§1) Specificity of the anti-CD3 antibodies for human CD3+ Jurkat cells compared to CHO-S cells at pH 6.0 and 7.4 was determined using a FACS cell binding assay. Briefly, CD3+ human Jurkat cells and CHO-S cells were thawed and washed with cold PBSF buffer, pH 7.4 (PBS+0.1% BSA, pH 7.4). About 200,000 cells were aliquoted per well of a 96-well plate and pelleted by centrifugation (5 minutes at 500×g). The cells were washed with either PBSF pH 7.4 or PBSF pH 6.0 (PBS+0.1% BSA, pH 6.0), and then resuspended in 100 ul in either PBSF pH 7.4 or PBSF pH 6.0 with IgG antibody produced in yeast (100 nM). The mixture (cells+antibody) was incubated for 20 minutes on ice, then washed twice with either PBSF pH 7.4 or PBSF pH 6.0. Cells were resuspended in 50 ul of propidium iodide (1:500 dilution) and anti-human IgG-RPE (1:100 dilution) prepared in either PBSF pH 7.4 or PBSF pH 6.0, then incubated for 20 minutes on ice in the dark before cells were washed twice with either PBSF pH 7.4 or PBSF pH 6.0. Binding was analyzed on FACS Canto II.
(§2) Cell binding assays. CD3+ human Jurkat cells (ATCC) and CHO-S cells (Invitrogen/ThermoFisher) were thawed and washed with cold PBSF buffer, pH 7.4 (PBS+0.1% BSA, pH 7.4). About 200,000 cells were aliquoted per well of a 96-well plate (FACS Assay Plate VWR BD 353263) and pelleted by centrifugation (5 minutes at 500×g). The cells were washed with either PBSF pH 7.4 or PBSF pH 6.0 (PBS+0.1% BSA, pH 6.0), and then resuspended in 100 ul in either PBSF pH 7.4 or PBSF pH 6.0 with IgG antibody (100 nM) produced in yeast as described above. The mixture (cells+antibody) was incubated for 20 minutes on ice, then washed twice with either PBSF pH 7.4 or PBSF pH 6.0. Cells were resuspended in 50 ul of propidium iodide (Roche; 1:500 dilution) and anti-human IgG-RPE (Southern Biotech; 1:100 dilution) prepared in either PBSF pH 7.4 or PBSF pH 6.0, then incubated for 20 minutes on ice in the dark before cells were washed twice with either PBSF pH 7.4 or PBSF pH 6.0. Binding was analyzed on FACS Canto II.
On the technique in general: In flow cytometry, cells or beads pass a laser one at a time.

The target of test [2] is T1, human CD3 on CD3+ Jurkat cells. Briefly: flow cytometry on CD3+ Jurkat cells, ratio of MFI at pH 6.0 to pH 7.4. The method, then: as §1, §2
Test [3] has the same target. In words: flow cytometry, 100 nM IgG on CD3+ Jurkat cells, pH 6.0. The method, then: as §1, §2

These results are taken from US20220380463A1 (Adimab, published 2022).

T1 sequence (P07766 23-207): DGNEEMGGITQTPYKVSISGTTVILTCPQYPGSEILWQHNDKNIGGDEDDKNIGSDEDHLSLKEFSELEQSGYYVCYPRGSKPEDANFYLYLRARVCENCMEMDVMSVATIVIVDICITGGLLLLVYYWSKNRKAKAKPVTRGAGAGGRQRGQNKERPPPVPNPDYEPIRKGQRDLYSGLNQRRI

B1: LAD5224_P03_A01 (ADI-26906) (antibody, V domains shown)
VH: QVQLVQSGAEVKKPGASVKVSCKASGFNIKDYYMHWVRQAPGQRLEWMGWIDLENANTIYDAKFQGRVTITRDTSASTAYMELSSLRSEDTAVYYCARDAYGRYFYDVWGQGTLVTVSS
VL: DIVMTQSPDSLAVSLGERATINCKSSQSLLNARTGKNYLAWYQQKPGQPPKLLIYWASTRESGVPDRFSGSGSGTDFTLTISSLQAEDVAVYYCKQSYSRRTFGGGTKVEIK
notes: IgG; also called Ab1; parent clone
In the case of B1, the “MFI pH 7.4” value in test [1] amounted to 5270 MFI. In addition, the “MFI pH 6.0/MFI pH 7.4” value in test [2] worked out at 1.1. The “MFI pH 6.0” value in test [3] was determined as 6040 MFI.

B2: SAD10318_P01_B01 (ADI-48574) (antibody, V domains shown)
VH: QVQLVQSGAEVKKPGASVKVSCKASGFNIKDYYMHWVRQAPGQRLEWMGWIDLENANTIYDAKFQGRVTITRDTSASTAYMELSSLRSEDTAVYYCARDAYGRYHYDHWGQGTLVTVSS
VL: DIVMTQSPDSLAVSLGERATINCKSSQSLLNAHTGHNYLAWYQQKPGQPPKLLIYWASTRESGVPDRFSGSGSGTDFTLTISSLQAEDVAVYYCKQSYSRRTFGGGTKVEIK
notes: IgG; also called Ab2
Consider B2, for which the “MFI pH 7.4” value in test [1] amounted to 150 MFI. In addition, in test [2], the “MFI pH 6.0/MFI pH 7.4” value is 23.7. In test [3], the “MFI pH 6.0” value came to 3550 MFI.

B3: SAD10318_P01_A02 (ADI-48581) (antibody, V domains shown)
VH: QVQLVQSGAEVKKPGASVKVSCKASGFNIKDYYMHWVRQAPGQRLEWMGWIDLENANTIYDAKFQGRVTITRDTSASTAYMELSSLRSEDTAVYYCARDAYHHYFYDVWGQGTLVTVSS
VL: DIVMTQSPDSLAVSLGERATINCKSSQSLLNARTHKNHLAWYQQKPGQPPKLLIYWASTRESGVPDRFSGSGSGTDFTLTISSLQAEDVAVYYCKQSYHHRTFGGGTKVEIK
notes: IgG; also called Ab237
On to B3, for which the “MFI pH 7.4” value in test [1] was 38 MFI. Besides, in test [2], the “MFI pH 6.0/MFI pH 7.4” value was found to be 45.5. Also, the “MFI pH 6.0” value in test [3] was found to be 1730 MFI.

B4: SAD10318_P01_C01 (ADI-48575) (antibody, V domains shown)
VH: QVQLVQSGAEVKKPGASVKVSCKASGFNIKDYYMHWVRQAPGQRLEWMGWIDLENANTIYDAKFQGRVTITRDTSASTAYMELSSLRSEDTAVYYCARDAYHRYHYDVWGQGTLVTVSS
VL: DIVMTQSPDSLAVSLGERATINCKSSQSLLNAHTHKNYLAWYQQKPGQPPKLLIYWASTRESGVPDRFSGSGSGTDFTLTISSLQAEDVAVYYCKQSHSHRTFGGGTKVEIK
notes: IgG; also called Ab113
As for B4, the “MFI pH 7.4” value in test [1] is 81 MFI. Moreover, in test [2], the “MFI pH 6.0/MFI pH 7.4” value came out at 38.4. In addition, in test [3], the “MFI pH 6.0” value came to 3110 MFI.

B5: SAD10318_P01_A03 (ADI-48587) (antibody, V domains shown)
VH: QVQLVQSGAEVKKPGASVKVSCKASGFNIKDYYMHWVRQAPGQRLEWMGWIDLENANTIYDAKFQGRVTITRDTSASTAYMELSSLRSEDTAVYYCARDHYHRYFYDVWGQGTLVTVSS
VL: DIVMTQSPDSLAVSLGERATINCKSSQSLLNARTGHNYLAWYQQKPGQPPKLLIYWASTRESGVPDRFSGSGSGTDFTLTISSLQAEDVAVYYCKQSHSHRTFGGGTKVEIK
notes: IgG; also called Ab36
On to B5, for which the “MFI pH 7.4” value in test [1] worked out at 66 MFI. The “MFI pH 6.0/MFI pH 7.4” value in test [2] turned out to be 77.1. Besides, the “MFI pH 6.0” value in test [3] was determined as 5120 MFI.

B6: SAD10318_P01_B02 (ADI-48582) (antibody, V domains shown)
VH: QVQLVQSGAEVKKPGASVKVSCKASGFNIKDYYMHWVRQAPGQRLEWMGWIDLENANTIYDAKFQGRVTITRDTSASTAYMELSSLRSEDTAVYYCARDHYHRYFYDVWGQGTLVTVSS
VL: DIVMTQSPDSLAVSLGERATINCKSSQSLLNARTGHNHLAWYQQKPGQPPKLLIYWASTRESGVPDRFSGSGSGTDFTLTISSLQAEDVAVYYCKQSHSHRTFGGGTKVEIK
notes: IgG; also called Ab248
With B6, the “MFI pH 7.4” value in test [1] worked out at 36 MFI. For the same molecule, the “MFI pH 6.0/MFI pH 7.4” value in test [2] was found to be 9. Also, in test [3], the “MFI pH 6.0” value stood at 326 MFI.

B7: LAD9965_P01_H07 (ADI-48666) (antibody, V domains shown)
VH: QVQLVQSGAEVKKPGASVKVSCKASGFNIKDYYMHWVRQAPGQRLEWMGWIDLENANTIYDAKFQGRVTITRDTSASTAYMELSSLRSEDTAVYYCARDAYGRYFYDVWGQGTLVTVSS
VL: DIVMTQSPDSLAVSLGERATINCKSSQSLLNARTGHNYLAWYQQKPGQPPKLLIYWASTRESGVPDRFSGSGSGTDFTLTISSLQAEDVAVYYCKQSYSRRTFGGGTKVEIK
notes: IgG; also called Ab177
B7: in test [1], the “MFI pH 7.4” value worked out at 4800 MFI. Moreover, the “MFI pH 6.0/MFI pH 7.4” value in test [2] is 1.2. Moreover, the “MFI pH 6.0” value in test [3] worked out at 5700 MFI.
